Test results reported in PMC8005036 (Vaccines, 2021).

Biological target: the molecule itself
Test: negative-stain transmission elect

B1: LS-SpyTag (Aquifex aeolicus lumazine synthase multimeric protein scaffold particle with SpyTag) (other)
chain: MQIYEGKLTAEGLRFGIVASRFNHALVDRLVEGAIDAIVRHGGREEDITLVRVPGSWEIPVAAGELARKEDIDAVIAIGVLIRGATPHFDYIASEVSKGLANLSLELRKPITFGVITADTLEQAIERAGTKHGNKGWEAALSAIEMANLFKSLRGGGGSGGGGSGGGGSAHIVMVDAYKPTK
notes: also called LS-ST; LS-MPSPs; copies: 60
  binding result: binds
